Assay results published in patent publication US20220135680A1 (ABZYME THERAPEUTICS, published 2022).
Residue numbers refer to the chain shown, from its start.

Legend:
[1] = target: T1, human CD3 receptor on human cells (human, UniProt P07766 23-207; P09693 23-182; P04234 22-171); assay: flow cytometry on Jurkat cells (FIG. 5)
T1 construct: whole, on cells; also called human CD3 on cell surface; CD3 on Jurkat cells, clone E6-1

[2] = target: T1, human CD3 receptor on human cells; assay: flow cytometry on human cells (Example 5)

B1: Abz497 ScFV (scFv)
scFv: QIQLVQSGAEVAKPGASVKVSCKASGYTFTRYTMHWVRQRPGQGLEWIGYINPSRGYTNYNQKFKDRATLTTDKSTSTAYMELSSLTSEDTAVYYCARYYDDHYCLDYWGQGTTVTVSSVEGGSGGSGGSGGSGGVDDIQLTQSPSSLSASVGDRVTITCRASSSVHYMNWYQQKSGTAPKRWIYDTSKVASGVPYRFSGSGSGTSYTLTISSLQPEDAATYYCQQWSSNPLTFGGGTKVEIKR
notes: also called pH-dependent ScFV antibody variant; not shown: FLAG tag at the C terminus
B1: binds [1].

B2: Abz494 ScFV (scFv)
scFv: B1 scFv with S144P
notes: as for B1
B2: binds [2].
